Holding throughout (assay): SPOT array
Assay [1] has as its target T1, Yfr024 SH3 (LSB3_YEAST), P43603.
T1 chain: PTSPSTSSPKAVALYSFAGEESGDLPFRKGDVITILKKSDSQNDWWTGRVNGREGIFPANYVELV

Assay [2] has as its target T2, Yhr016c SH3 (YSC84_YEAST), P32793.
T2 chain: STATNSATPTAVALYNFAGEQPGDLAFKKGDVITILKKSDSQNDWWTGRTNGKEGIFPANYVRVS

The target of assay [3] is T3, Rvs167 SH3 (RV167_YEAST), P39743.
T3 chain: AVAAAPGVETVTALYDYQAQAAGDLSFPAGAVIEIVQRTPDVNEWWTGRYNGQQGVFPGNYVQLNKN

Assay [4] deals with T4, Boi2 SH3 (BOI2_YEAST), P39969.
T4 chain: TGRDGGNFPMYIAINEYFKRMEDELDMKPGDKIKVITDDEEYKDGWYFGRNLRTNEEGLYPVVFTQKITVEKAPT

Assay [5] has as its target T5, Boi1 SH3 (BOI1_YEAST), P38041.
T5 chain: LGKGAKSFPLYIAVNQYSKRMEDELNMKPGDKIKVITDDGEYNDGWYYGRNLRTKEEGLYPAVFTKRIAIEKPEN

Consider 19 molecules from paper PMC314469, “Protein Interaction Networks by Proteome Peptide Scanning” (PLoS Biology, 2004).

Take IAAPKKPRKPRQTK [YGL025C 241-254]: the normalised SPOT signal, Boehringer light units (BLU); mean over the file's lines of this peptide amounted to 3170 in assay [1]; 126 in assay [2]; 95.9 in assay [3]; 53.7 in assay [4]; 49.7 in assay [5].

Take IEVPQSPTKNRVKV [YIL150C 61-74]: the normalised SPOT signal, Boehringer light units (BLU); mean over the file's lines of this peptide in assay [1] was determined as 176; in assay [2], 201; in assay [3], 27.2; in assay [4], 19.2; in assay [5] it was 130.

Take HTPPLNPSKKSASI [YOR371C 699-712]: the normalised SPOT signal, Boehringer light units (BLU); mean over the file's lines of this peptide in assay [1] was 15.3; in assay [2], 90.5; in assay [3] it was 28.1; in assay [4], 82.2; in assay [5], 107.

On to HPDPADPAKELELN [YDR037W 377-390], for which the normalised SPOT signal, Boehringer light units (BLU); mean over the file's lines of this peptide in assay [1] is -0; in assay [2] it was 161; in assay [3] it was 50; in assay [4] it was 12.4; in assay [5], 72.

For HQIPSAPQRLVSII [YMR136W 114-127], the normalised SPOT signal, Boehringer light units (BLU); mean over the file's lines of this peptide in assay [1] was found to be 572; in assay [2], 216; in assay [3], 16; in assay [4], 18.8; in assay [5], 86.7.

Turning to IELPHDPHKHFHRD [YNL091W 543-556], the normalised SPOT signal, Boehringer light units (BLU); mean over the file's lines of this peptide in assay [1] was 0; in assay [2] it was 77.2; in assay [3], 20.5; in assay [4], 23.2; in assay [5], 126.

As for IEQPFGPPKITKDG [YLR259C 61-74], the normalised SPOT signal, Boehringer light units (BLU); mean over the file's lines of this peptide in assay [1] came out at 149; in assay [2], 51.4; in assay [3], 28.2; in assay [4], 26.4; in assay [5], 119.

Turning to IAYPFYPFKKLGRQ [YGR165W 32-45], the normalised SPOT signal, Boehringer light units (BLU); mean over the file's lines of this peptide in assay [1] came out at 813; in assay [2], 230; in assay [3], 16.3; in assay [4], 32.7; in assay [5], 75.8.

Consider HSEPAIPYRETFLS [YNL163C 746-759], for which the normalised SPOT signal, Boehringer light units (BLU); mean over the file's lines of this peptide was 92.9 in assay [1]; 634 in assay [2]; 35.1 in assay [3]; 14.6 in assay [4]; 83.3 in assay [5].

Turning to IAYPGDPLRFHSHL [YAR008W 207-220], the normalised SPOT signal, Boehringer light units (BLU); mean over the file's lines of this peptide in assay [1] was 93.2; in assay [2] it was 196; in assay [3], 18.3; in assay [4], 143; in assay [5] it was 12.

On to HSSPIAPSKAKRQR [YCR065W 64-77], for which the normalised SPOT signal, Boehringer light units (BLU); mean over the file's lines of this peptide in assay [1] amounted to 1350; in assay [2] it was 142; in assay [3], 561; in assay [4] it was 170; in assay [5] it was 673.

Turning to HNSPVAPNRYAANL [YBR038W 84-97], the normalised SPOT signal, Boehringer light units (BLU); mean over the file's lines of this peptide in assay [1] was 155; in assay [2], 244; in assay [3], 87.3; in assay [4] it was 33.8; in assay [5] it was 157.

With HGVPVVPSREVTIN [YER014W 440-453], the normalised SPOT signal, Boehringer light units (BLU); mean over the file's lines of this peptide in assay [1] is 555; in assay [2], 765; in assay [3], 82; in assay [4], 33.6; in assay [5], 140.

For the molecule HRGPRRPQKNRYNT [YMR280C 1394-1407], the normalised SPOT signal, Boehringer light units (BLU); mean over the file's lines of this peptide in assay [1] worked out at 1710; in assay [2] it was 161; in assay [3], 60.7; in assay [4], 61; in assay [5], 9.8.

Take HSTPVTPRRLFTSQ [YGL003C 171-184]: the normalised SPOT signal, Boehringer light units (BLU); mean over the file's lines of this peptide in assay [1] was determined as 16700; in assay [2], 6510; in assay [3] it was 282; in assay [4] it was 77.8; in assay [5] it was 2290.

For the molecule HLPPPPPPRAQQQQ [YOR329C 664-677], the normalised SPOT signal, Boehringer light units (BLU); mean over the file's lines of this peptide stood at 6510 in assay [1]; 1630 in assay [2]; 1900 in assay [3]; 15.5 in assay [4]; 61 in assay [5].

With IELPTQPVRKNPEA [YOR042W 147-160], the normalised SPOT signal, Boehringer light units (BLU); mean over the file's lines of this peptide in assay [1] was found to be 550; in assay [2], 112; in assay [3], 47; in assay [4] it was 20.1; in assay [5], 41.7.

IAHPVRPHRAITMT [YBR276C 631-644]: the normalised SPOT signal, Boehringer light units (BLU); mean over the file's lines of this peptide came to 2660 in assay [1]; 225 in assay [2]; 86.7 in assay [3]; 145 in assay [4]; 3310 in assay [5].

HLDPEAPDKLLENS [YOR301W 109-122]: the normalised SPOT signal, Boehringer light units (BLU); mean over the file's lines of this peptide in assay [1] amounted to 35.4; in assay [2] it was 329; in assay [3], 29.1; in assay [4] it was 62.5; in assay [5], 161.
